Measurements published in PMC2996635 (Journal of immunology (Baltimore, Md. : 1950), 2010).

Assays:
Test in all cases: SEC
[1] = biological target: mCD5-His (extracellular region of mouse CD5 fused to a His tag) (mouse)
[2] = biological target: hrCD5-His (human CD5 domain 1 and rat CD5 domains 2 and 3, His tag) (human | rat)
[3] = biological target: the molecule itself

mCD5-His (extracellular region of mouse CD5 fused to a His tag) (domain or fragment)
stoichiometry N [1]: 2

hrCD5-His (human CD5 domain 1 and rat CD5 domains 2 and 3, His tag)
stoichiometry N [2]: 2

B1: hCD5-His (extracellular region of human CD5 fused to a His tag) (domain or fragment, UniProt P06127 25-372, looked up)
chain: RLSWYDPDFQARLTRSNSKCQGQLEVYLKDGWHMVCSQSWGRSSKQWEDPSQASKVCQRLNCGVPLSLGPFLVTYTPQSSIICYGQLGSFSNCSHSRNDMCHSLGLTCLEPQKTTPPTTRPPPTTTPEPTAPPRLQLVAQSGGQHCAGVVEFYSGSLGGTISYEAQDKTQDLENFLCNNLQCGSFLKHLPETEAGRAQDPGEPREHQPLPIQWKIQNSSCTSLEHCFRKIKPQKSGRVLALLCSGFQPKVQSRLVGGSSICEGTVEVRQGAQWAALCDSSSARSSLRWEEVCREQQCGSVNSYRVLDAGDPTSRGLFCPHQKLSQCHELWERNSYCKKVFVTCQDPNP
stoichiometry N [3]: 2
